The record followed here is patent US20220033501A1 (SHANGHAI PHARMAEXPLORER, published 2022).

Test [1] has as its target T1, human TIM-3 on CHOK1 stable cell line (CHOK1-hTIM-3) (human, UniProt Q8TDQ0 22-301).
T1 sequence: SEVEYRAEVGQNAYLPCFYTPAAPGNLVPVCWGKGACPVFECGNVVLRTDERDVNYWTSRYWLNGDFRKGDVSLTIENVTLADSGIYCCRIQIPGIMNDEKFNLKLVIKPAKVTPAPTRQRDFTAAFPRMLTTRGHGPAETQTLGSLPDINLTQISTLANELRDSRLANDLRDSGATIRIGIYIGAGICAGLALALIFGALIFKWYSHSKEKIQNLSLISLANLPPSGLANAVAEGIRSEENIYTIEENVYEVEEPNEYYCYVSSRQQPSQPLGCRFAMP
Description: FACS, CHOK1-hTIM-3 cells, 8 nM antibody. Background: Flow cytometry measures light scatter and fluorescence of single cells or particles in a stream.

Test [2] deals with T2, murine TIM-3 extracellular domain protein with hFc tag (mTIM-3-hFc) (mouse, UniProt Q8VIM0 29-191).
T2 construct: also called mouse TIM-3 extracellular domain protein; not shown: human IgG Fc fragment (hFc) of the pCpC vector
T2 chain: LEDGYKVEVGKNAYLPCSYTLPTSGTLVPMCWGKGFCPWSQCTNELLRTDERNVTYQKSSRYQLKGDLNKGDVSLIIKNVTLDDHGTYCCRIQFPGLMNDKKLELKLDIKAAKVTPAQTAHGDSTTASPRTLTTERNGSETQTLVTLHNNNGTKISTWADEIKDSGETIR
Kind of test: ELISA, coated mouse TIM-3 ECD protein, 0.0007 nM antibody. (ELISA stands for enzyme-linked immunosorbent assay.)

Test [3] has as its target T1, human TIM-3 on CHOK1 stable cell line …. Kind of test: FACS, CHOK1-hTIM-3 cells, 0.32 nM antibody.
Test [4] deals with T3, human TIM-3 extracellular domain protein with hFc tag (hTIM-3-hFc) (human, UniProt Q8TDQ0 22-200).
T3 construct: not shown: human IgG Fc fragment (hFc) of the pCpC vector
T3 sequence: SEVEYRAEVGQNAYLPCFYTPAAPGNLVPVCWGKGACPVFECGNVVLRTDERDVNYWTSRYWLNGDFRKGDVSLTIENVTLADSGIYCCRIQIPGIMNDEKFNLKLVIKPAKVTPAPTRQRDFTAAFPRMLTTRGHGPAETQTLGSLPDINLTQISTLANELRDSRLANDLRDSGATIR
Kind of test: ELISA, coated human TIM-3 ECD protein, 0.6667 nM antibody.

Test [5] addresses T2, murine TIM-3 extracellular domain …. Description: ELISA, coated mouse TIM-3 ECD protein, 0.6667 nM antibody.

B1: 7A4F10 fully human TIM-3 antibody (human IgG4, kappa) (antibody, V domains shown)
VH: EVQLLESGGGLVQPGGSLRLSCAASGFTFRTHLISWVRQAPGKGLEWVAAITGSGGSTYYADSVKGRFIISRDNSKNTLFLQMNSLRAEDTAVYYCAKDGGSGSYDDFWGQGTLVTVSS
VL: ETVLTQSPVTLSLSPGERATLSCRASQSVGSYLAWYQQKPGQAPRLLIYDASNRATGIPARFSGSGSGTDFTLTISSLEPEDFAVYYCQQRSNWPPTFGQGTKVEIK
As to B1, the Mean fluorescence intensity in test [1] came out at 308; in test [3], 90.1. For the same molecule, the OD450 was determined as 0.22 in test [2], 2.75 in test [4] and 0.25 in test [5].

B2: 18D2H2 fully human TIM-3 antibody (human IgG4, kappa) (antibody, V domains shown)
VH: EVQLVESGGDLVQPGGSLRLSCAASGFTFSTYWMTWVRQAPGRGLEWVANIKQDGSAKYYVDSVKGRFTLSRDDAKNSLYLQMNSLRAEDTAVYYCARGSNWFDYWGQGTLVTVSS
VL: ETVMTQSPATLSVSPGERATLSCRANQNVYSNLAWYQQKPGQAPRLLIYDASTRATGFPARFSGSGSGTEFTLTISSLQSEDFAVYYCQQYNNWPLTFGGGTKVEIK
As for B2, the Mean fluorescence intensity in test [1] stood at 268; in test [3], 93.1. In addition, the OD450 in test [2] turned out to be 0.21; in test [4], 2.58; in test [5], 0.22.

B3: 34B6D8 fully human TIM-3 antibody (human IgG4, kappa) (antibody, V domains shown)
VH: EVQLVESGGGLVQPGGSLRLSCAASGFTFSTYWMTWVRQAPGKRLEWVANIKQGGGDKYYVDSVKGRFTISTDNAKNSLYLQMNSLRAEDTAVYYCARGSNWFDPWGQGTLVTVSS
VL: EIVMTQSPATLSMSPGERATLSCRASQSVYDNLAWYQQKPGQAPRLLIYGASTRATGIPARFSGSGSGTEFTLTISSLQSEDFALYYCQQYTHWPITFGQGTRLEIK
On to B3, for which the Mean fluorescence intensity is 219 in test [1] and 76.9 in test [3]. For the same molecule, the OD450 in test [2] worked out at 0.24; in test [4], 3.11; in test [5], 0.27.

B4: 39E5H1 fully human TIM-3 antibody (human IgG4, kappa) (antibody, V domains shown)
VH: EVQLVESGGGLVQPGGSLRLSCAASGFTFSSYWMSWVRQAPGKGLEWVANIKRGGSERYYVDSVKGRFTISGDNAKNSVYLQMNSLRAEDTAVYYCARGSNWFDPWGQGTLVTVSS
VL: ETVMTQSPAILSVSPGERATLSCRASQSVYSNLAWYQQKLGQAPRLLIYDASTRATGIPARFSGSGSGTEFTLTISSLQSEDFAVYYCQQYNNWPITFGQGTRLEIK
Consider B4, for which the results for the Mean fluorescence intensity in test [1] and in test [3] were 234 and 73.1, respectively. Moreover, the OD450 in test [2] was determined as 0.23; in test [4] it was 3.01; in test [5] it was 0.26.
